Measured values from paper PMC4482198.

Target: Angiotensin-II (Rattus norvegicus)
Assay: radioligand

B1: Angiotensin II type-1 receptor (AT1R), P25095 (protein)
chain: MALNSSAEDGIKRIQDDCPKAGRHSYIFVMIPTLYSIIFVVGIFGNSLVVIVIYFYMKLKTVASVFLLNLALADLCFLLTLPLWAVYTAMEYRWPFGNHLCKIASASVSFNLYASVFLLTCLSIDRYLAIVHPMKSRLRRTMLVAKVTCIIIWLMAGLASLPAVIHRNVYFIENTNITVCAFHYESRNSTLPIGLGLTKNILGFLFPFLIILTSYTLIWKALKKAYEIQKNKPRNDDIFRIIMAIVLFFFFSWVPHQIFTFLDVLIQLGVIHDCKISDIVDTAMPITICIAYFNNCLNPLFYGFLGKKFKKYFLQLLKYIPPKAKSHSSLSTKMSTLSYRPSDNMSSSAKKPASCFEVE
  Kd: 2.8 nM
